The nature of the series: soluble on expression in E. coli; label from the status in PepcDB or PDB records.
Regarding “MGSDKIHHHHHHMFGPGGTQIPNPLRLKRPEGELVWAHATTQERLLGLCDVGCRLKMMRPDLSVMLTWEEDMRPAKLPEGCDIPLGPLTVEQPNDIRNFLDNWSPDVCVWAGGRLRRLLMRHMREREMPALLCDIDADELPSRASRWLPDQRHRLLNGFAAILVPGTEVSERLKRAGVAPERIHPAGRLFQSSTPPSCNDDELAQMQKQFASRPLWLAAHVSLSELPAVLKAHRGALRLLHRLLLVLTVDTFEDLDAARSLLRKEGLSFADWDMGEDPEDHTQVAIGLTENLGLWYRLCPISFLGNSLIRGAQGTNPLDAAALGSAILHGPGVVAHAQAYQRLAALDAAERIHGEEELADAVFRLSSPDRAAEMALAGWQVVTEGAVMTDTLLERIQDLLDQSELSHAPA”, the “soluble on expression in E. coli” value was “not soluble”.
In the case of “MGSDKIHHHHHHMFKETLRECMEGHTLAERKAEQVMDAIMKGEATASQIASLLTVLRFRGETVAEMTGFARAMRRHSIQIEHSFSQVVDTCGTGGDDVGTFNISTATALLVSALGVPVAKHGNRAVSSKSGSADVLEALQIPIQSSPEEATASLQKHNMCFMFAPLYHVAMKHAVAPRKEIGFRTIFNLLGPLTNPARAEHQLIGVYDRNFAEKMAETLRRLGTKHSLLVAGHGGLDELSITGPSTVFEVKGDAIDRYELIPEDVGLERGDLAQIQVSTVQESATLIDQVLIGKANKSAQQIVLLNAGAALYAADRVDSIKAGVALAKEGIASGHVADHVRNLRQTDQEAEQHA”, the “soluble on expression in E. coli” value was “not soluble”.
Then “MGSDKIHHHHHHMFKLVSEFEPTGDQPQAIEKLVEGLNRGMRFQTLLGVTGSGKTFTMANVIARVNRPALVISPNKTLAAQLYQEFKTFFPENRVEFFISYYDYYQPEAYIPTKDLYIEKNADINDVIVRMRMSTLKSVRTRRDVVVVASVSCIYATGDPNDFDRMNINLAVGDRIDVLELAERLARIGYQRTEDVSLSGCFRLKGDTVEIYPTYQDEGIRIEFFGDEVDSITLIDRFNRTTLEHLDKIIIYPAVEFITTEEKLKRAVESIREELNERLSELKKQGKILEYERLKQRTLNDIELLETMGYCPGIENYSRHFDGRKPGEPPYTLLDYFDKDFIVFIDESHITVPQLRAMYNGDRSRKKNLVEYGFRLPSAYDNRPLTFEEFLKKTGQIIFVSATPGDFELSISEQVVEQIIRPTGLVDPEVEVRPTAGQVDDLVNEIVKVKERGERALVTVLTKKTAELLSEHLTELGIRSLYLHSELDAIERVEVLKKLRRGDVDVVVGVNLLREGLDLPEVSLVAIMDADVEGFLRSETTLIQIIGRTARNVNGKVIMYADRITNAMKRAIEETNRRRRIQLEYNRKHGITPRSVIKPLEIEVFEQFMVKEEPERYGDTVKNIFEMKKTLSPEEYMAVLEEEMYRAASELRYEDAAALRDELFRIREEIKKKKGL”, with “not soluble”; and “MGSDKIHHHHHHMFKNTFQSGFLSILYSIGSKPLQIWDKKVRNGHIKRITDNDIQSLVLEIEGTNVSTTYITCPADPKKTLGIKLPFLVMIIKNLKKYFTFEVQVLDDKNVRRRFRASNYQSTTRVKPFICTMPMRLDDGWNQIQFNLLDFTRRAYGTNYIETLRVQIHANCRIRRVYFSDRLYSEDELPAEFKLYLPVQNKAKQ”, with “not soluble”.
The same measure for “MGSDKIHHHHHHMFKPWVGDDWGHQDNALQGIRLLVMGESHYCDPAKPELVGRCEPDVTSYVVRRYAIEESHRFFTGITQVISGKPKWQMSRDDVAAIWHSIAFYNYVPLYVGTQSRIRPGDKFALGRVPFEILLEQLRPRAILVCGYELWWWVLKGMPCGFNGDPASVPFQKIGPAIAARMKHPSSAYSSVRWRPTLLELLSRARALQQE”: “not soluble”; for “MGSDKIHHHHHHMFLDDFHTVTDDRLCITAEQASRFAKCIAGDYNPIHDPDARRFCVPGDLLFALVMARFGLAQRMTFHFKGMVGDSVPLCFAQHGDTVSVTDHHGKVYLEVERGGDITHDAGVIEAFTRRYVAFSGRNFPHYLKPLMEEQGVMFNPQRPLVIYDSMGFSLSRLDVAEAGVAFTGATLDVTGKRGDALLQFQMTDADTVIGHGSKKLVVSGLREYDPPVMDAFVEQFMSLKAHSATTG”: “not soluble”.
The same measure for “MGSDKIHHHHHHMFLDGEEGLIGYIIVTGTAGAGKSSLVGALADRITSLGANVATLNLDPAAEKLPYDPSVDARDYVSVAELMDKGLGPNGALVAAVDSLINHVLDIREEIDYYSPDYVVVDTPGQLELFAYRVGGPLVLRGIMGDYNGVNIFLIDSIFIDNAISLVSALLLASSVAVRLGLPQVNAVSKADMLLPEVREEVIPRLGEPGFLEFLLEKDKTYEGAGKALAEELARAIETTGFIGEVLQASVLEPETVTLLAAKAQQILAGGDDYKIYDITGQ”: “not soluble”.
For the sequence “MGSDKIHHHHHHMFMKNLYIDPDITKASTISSEFYTSTEWFEITKEKIFSKTWQFCISTEELTTNRQLIPFTLLPGYLEEPLLFAKDELGTIRCLSNVCTHRGKILIEEPCVAHKIKCSYHGRRFNFCGELLHMPEFELTKDFPSNNDNLSQISTGILEPFLFASLSPVVPFHEVFAEIKERLFWLPMEKMRLDKEKCKDYVVKSHWALYCENYLEALHIPFVHPSLRKVIDCNTYTTELFRYCNLQLALASPDEVSFDLPKGAQDYGKQVAAYYFWIFPNTMLNFYPWGCSVNVVKPLSPELTQVSFLSFVLDESKFGKGAGGALDQVEQEDERVVESVQRGIKSRYYDIGRFSPTKEQGTHHFQRLLCEFLND”, the “soluble on expression in E. coli” value is on record as “not soluble”.
For “MGSDKIHHHHHHMFNSEIKEKYLDTLSEGMVMQMRPIFAKAEITETLYNKDIYDFTSMQILELIRSFDQTTIGSVRRTLALLSLYIDWAISYKLSKGLTNLARTISEEELYECLGDKKLYITYSELEEMENQLVNYQSKAVLRLLFEEVSGLAHSELLSLTKKQVEDAMLNGNVLTLYDSKHGERKLKVSSECLVIALNAAQETKYKLKNGKAKGQTKEVFLVENDYVVKTKRTSNKGDGQASKFVITNLITDISEFFKINFLTPNTIVRSGHLYRAYQLYKEKGVIDNSVRYQIIDDFNLRVKSKYRAVYSMQDYINEEEVNKYYAEELGLKETTI”, the “soluble on expression in E. coli” value is on record as “not soluble”.
The same measure for “MGSDKIHHHHHHMFQDKYVFAQLASFLNRSKFNRIVTKYDGDKYVKHFTCWNQLLALMFGQLSNRESLRDLIVALEAHHSKCYHLGMGKNVSKSSLARANQDRDYHIFEEYAYYLVSEARQKCANHIFKLGGNVYAFDSTTIDLCLSVFWWAKFRKKKGGIKVHTLYDVETQIPAFFHITEASVHDSKVMIEIPYEPSSYYIFDRGYNNFKMLYKIHQIEAYFVVRAKKNLQYKSIQWKRRLPKNVLSDASVLLTGFYPKQYYPKPLRLVKYWDEEQEREFTFITNAMHISALQVAELYKNRWQVELFFKWLKQHLKIKRFWGTTENAVRIQIYAAICAYCLVAIIQHDMQLDRSTYEVLQILSISLTDKTHLRDLFDKTKFQNDKERFGPNGPSLFNF”: “not soluble”; for “MGSDKIHHHHHHMFQLHHKLAADSFLVGDFPLSTCRLINDCQFPWLILVPRVSGIKELYELSEADQTQFLRESSWLSSQLAKTFQADKMNVAALGNQVPQLHFHHIVRYQNDMQWPNPVWGIPAVPYSKEVLAQMQQTLMMALRGHHQMPFDWQM”: “not soluble”.
The same measure for “MGSDKIHHHHHHMFQNKKHRIALISIDGDPAVEIGQEEAGGQNVYVRQVGYALAQQGWQVDMFTRRSNSEQSAIAQHGPNCRTIRLKAGPAEFIGRDNLFDHLPEFIEEFQKFQQRQGFHYSLIHTNYWLSSWVGMELKKQQSLIQVHTYHSLGAVKYRSIGDVPVIAAQRLAVEKACLETIDCVVATSPQEQKHMRVLVSSKGNIEMIPCGTDTDKFGGIQRTAAREKLGIAPDAKIVLYVGRFDRRKGIETLVRAVAKSSLRGEANLQLVIGGGSRPGQSDAIERDRIASIVTELGLENCTTFAGRLDETVLPFYYAAADVCVVPSHYEPFGLVAIEAMASQTPVVASDVGGLQFTVVPEVTGLLAPPKDEVAFAAAIDRILINPTWRDQLGEAARQRTEIAFSWYSVGFRLTQLYTRLLAQTASNTRPRIAA”: “not soluble”; for “MGSDKIHHHHHHMFRYDVISNKKNVNPHILALHHHNEKTWISSSSGGVFASLTDYALRQAGVIFGAIYDDNFVVVHRRAETQEDTLKFRGSKYVQSNLTGIYQQVKFYLQEQRFVLFSGTPCQVEGLKGYLQRSYDNLLTVDILCHGVPSPRVFHDYLNFIRQNSDFHFTGIFMKDKTFGWGYQNSRLFFGKNASQFNTVLSRLWNDIFYSHLTTRPSCHACRFTNYLRPGDITIGDFWGIEKHHPQFTDSRGISLIMLNNTKAEIVWNHIKDDFNYLESNIKECIQPNLKYPVPEPVNKATFWQDYASMPFFQIMNKYYRITHQDLLKNRFYMILLTLKKRFT”: “not soluble”; for “MGSDKIHHHHHHMGASAISQQISKLEQELSIRLLQRNAFGVTPTPAGLAFLKHSQLILRQVNFAIDAAHSARLSGHVSLGFPPTITALIGIPLMKLMSERYPDIRLEIVETLSGNLIQSINSRQLDIAIIFTNEIDKQWSIQPLVREQMYLMARKEVLEKYGLSECIKSGIIQSQQIGDIPLVLPRQRHSLRKLLEHKIGQLNVVYEIDGLHLLMDSLIHLDLASVRPGSACLQEYKHKLQLLKVVDPEVERINYLVSLAEEELSPAALAAKSAIKACVKELIQNQIWPCSEIIL”: “not soluble”.
The same measure for “MGSDKIHHHHHHMGFEMTRGHLTWNDFKIVMAIANAGSLSGAARSLGVNHATVFRRLGDIERRLGVALFERSRKGYKPSLAGEELANTARIMDEAAHSAERKVAGRDLRPSGEIWVTTTDSLLMGLLAPLFKEFRNRYPDIVLDVAVANEMLNLTRREADVGIRPVNRPPENLIGRRLATVGQAIFGHRNLGLDKGQSIDFLSQQPWIGAGPRLQDSVLEQWMAQKNLADACVFRVDTLVGLLSAVNEGLGLAALPCYLAETCPDIVQLSDPIPELNYDLRKPLKVATHST”: “not soluble”; for “MGSDKIHHHHHHMGIDELYKKEFGIVAGVDEAGRGCLAGPVVAAAVVLEKEIEGINDSKQLSPAKRERLLDEIMEKAAVGIGIASPEEIDLYNIFNATKLAMNRALENLSVKPSFVLVDGKGIELSVPGTCLVKGDQKSKLIGAASIVAKVFRDRLMSEFHRMYPQFSFHKHKGYATKEHLNEIRKNGVLPIHRLSFEPVLELLTDDLLREFFEKGLISENRFERILNLLGARKSVVFRKERTNHNLPLF”: “soluble”.
Consider “MGSDKIHHHHHHMGIINAAFRLSQIERSIINKECHRTTCSLMDFIRDYTVVATDLEEAVQLRSTYNSLRRLGESDITEEDAVNILQQGTVIFNRISAYSYEELERKLVANYPNTPVLNAVDVVKKYSQKGNFKLGPVSTVLNAGEITGIVGENGNGKTTLLRILARLLSYDEGVLQYQFDGQETTEDYLIKHRIAYIPQRLESWQGTLRENLHYAATIHNIVGEENEKIVEFVIHRMGLSNFAHLGWKELSSGYKLRFELAKMLVWSPRILVLDEPLANLDINAQEWILQDFKSMASSIKNPVSVILSSQQLHEVEHVADNIIFLRNGRCDYSGAMNAFMQERDENVFELSGNFTSKELQPIFSNHAVQFSESGITIIVRTNTAITAADVLSMLISNGYTIKYFRDISTSTKQLFQL”, for which the “soluble on expression in E. coli” value is reported as “not soluble”.
Then “MGSDKIHHHHHHMGILYLKEHTSCYNYTKCIREGFLYHKFCDIEMDEEINETDSILFVIEGELEMSCNGKKMKLLAGNMICFGRGSRFKIHSRGKGSIVIAQFDNAVQSCEKISFAQLNSLDSPGDKIYPLEIRDRLHLFLKLLISYLEDGANCVHFHETKLKELFWSIRFYYTKTEQAAFFHPILGNDYDFKKKIFNNYRNARTVKELAGLCGTPLSSFKRKFLKEFREPAGNWLQKQINNIIKYKLADEDIPIGNIAEELHFSSHPQFCRYCKRNFGYTPGEWRKLLKNRDKTPGKLSGRV”, with “not soluble”.

(Values after the DeepSol protein solubility set.)
